From the supplement of paper PMC9112550, “Optimization of the antimicrobial peptide Bac7 by deep mutational scanning” (BMC Biology, 2022) come the findings set out here.

The test system of this data set is Escherichia coli TOP10. As to the kind of experiment: shrunken log2 fold change of peptide-encoding DNA abundance (4.5 h post-induction vs induction); higher = less antimicrobial activity (less host growth inhibition). The conditions noted are these: time post-induction: 4.5 h; library: site-saturation at positions 5, 18, 19, 20.
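Also: peptides expressed intracellularly from a pBAD plasmid library in pooled LB shake-flask culture, induced with 0.3% L-arabinose, DNA abundance read by NGS, three biological replicates, DESeq2 with apeglm shrinkage.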

As for RRIRPRPPRLPRPRPRPLMHPRP, the “shrunken log2 fold change” value was -0.0913.
As for RRIRERPPRLPRPRPRPWPPPRP, the “shrunken log2 fold change” value was determined as 0.045.
Turning to RRIRLRPPRLPRPRPRPMAIPRP, the “shrunken log2 fold change” value was 0.11.
With RRIRKRPPRLPRPRPRPMTIPRP, the “shrunken log2 fold change” value is -0.191.
RRIRERPPRLPRPRPRPAYEPRP: the “shrunken log2 fold change” value is -0.00975.
RRIRLRPPRLPRPRPRPLDSPRP: the “shrunken log2 fold change” value amounted to 0.0522.
Take RRIRARPPRLPRPRPRPCNWPRP: the “shrunken log2 fold change” value is -0.0619.
As for RRIRIRPPRLPRPRPRPCRRPRP, the figure is -0.23.
As to RRIRYRPPRLPRPRPRPTPTPRP, the “shrunken log2 fold change” value turned out to be 0.451.
Take RRIRARPPRLPRPRPRPDHQPRP: the “shrunken log2 fold change” value is -0.0683.
Under RRIRQRPPRLPRPRPRPKTPPRP stands -0.0134; under RRIRCRPPRLPRPRPRPGMYPRP, -0.848; under RRIRCRPPRLPRPRPRPQNKPRP, -0.526.
RRIRSRPPRLPRPRPRPMRHPRP: the “shrunken log2 fold change” value worked out at 3.44.
Turning to RRIRMRPPRLPRPRPRPEWAPRP, the “shrunken log2 fold change” value turned out to be 1.36.
RRIRMRPPRLPRPRPRPQSQPRP: the “shrunken log2 fold change” value is 0.226.
Under RRIRLRPPRLPRPRPRPNNGPRP stands 0.0736; under RRIRDRPPRLPRPRPRPHMHPRP, -0.0478; under RRIRFRPPRLPRPRPRPAVYPRP, -0.35.
For RRIRKRPPRLPRPRPRPPFFPRP, the “shrunken log2 fold change” value turned out to be 0.476.
With RRIRERPPRLPRPRPRPAITPRP, the “shrunken log2 fold change” value is -0.401.
RRIRHRPPRLPRPRPRPEGKPRP: the “shrunken log2 fold change” value came to 0.082.
As for RRIRERPPRLPRPRPRPGAYPRP, the figure is -0.243.
For RRIRIRPPRLPRPRPRPYHPPRP, the “shrunken log2 fold change” value is -0.0475.
For the sequence RRIRNRPPRLPRPRPRPCFHPRP, the “shrunken log2 fold change” value is -0.503.
As for RRIRGRPPRLPRPRPRPQFNPRP, the “shrunken log2 fold change” value was -0.163.
Take RRIRWRPPRLPRPRPRPFWLPRP: the “shrunken log2 fold change” value stood at 0.0108.
On to RRIRQRPPRLPRPRPRPSHHPRP, for which the “shrunken log2 fold change” value is 0.0184.
As for RRIRFRPPRLPRPRPRPHMWPRP, the figure is -0.951; as for RRIRGRPPRLPRPRPRPNWRPRP, 0.595.
For the sequence RRIRTRPPRLPRPRPRPGSSPRP, the “shrunken log2 fold change” value is -0.209.
Consider RRIRMRPPRLPRPRPRPEDWPRP, for which the “shrunken log2 fold change” value was 3.63.
With RRIRQRPPRLPRPRPRPDMNPRP, the “shrunken log2 fold change” value was -0.654.
Turning to RRIRDRPPRLPRPRPRPQTSPRP, the “shrunken log2 fold change” value worked out at 0.117.
Under RRIRNRPPRLPRPRPRPHEYPRP stands -0.048; under RRIRNRPPRLPRPRPRPYDSPRP, -0.284; under RRIRHRPPRLPRPRPRPMWYPRP, -0.0997.
Under RRIRCRPPRLPRPRPRPHEYPRP stands -0.253; under RRIRKRPPRLPRPRPRPLWWPRP, 0.477; under RRIRDRPPRLPRPRPRPGFLPRP, 0.368.
Under RRIRYRPPRLPRPRPRPSVTPRP stands -0.421.
As for RRIRDRPPRLPRPRPRPGVNPRP, the “shrunken log2 fold change” value amounted to 0.148.
As for RRIRCRPPRLPRPRPRPPEFPRP, the figure is 0.0967.
Under RRIRCRPPRLPRPRPRPYFYPRP stands -1.
Regarding RRIRKRPPRLPRPRPRPEYEPRP, the “shrunken log2 fold change” value turned out to be 0.0698.
Take RRIRNRPPRLPRPRPRPCSYPRP: the “shrunken log2 fold change” value was -0.212.
In the case of RRIRFRPPRLPRPRPRPPVHPRP, the “shrunken log2 fold change” value worked out at 0.119.
Under RRIRARPPRLPRPRPRPTFTPRP stands 0.51.
Turning to RRIRLRPPRLPRPRPRPPAWPRP, the “shrunken log2 fold change” value was found to be 0.98.
Under RRIRMRPPRLPRPRPRPDMFPRP stands 2.25; under RRIRKRPPRLPRPRPRPWRAPRP, 0.5; under RRIRSRPPRLPRPRPRPEMPPRP, 0.00153.
Under RRIRWRPPRLPRPRPRPKYPPRP stands -0.582; under RRIRDRPPRLPRPRPRPDLPPRP, 0.337.
Under RRIRGRPPRLPRPRPRPVYPPRP stands -0.129; under RRIRSRPPRLPRPRPRPTDQPRP, 0.16.
For the sequence RRIRFRPPRLPRPRPRPEGDPRP, the “shrunken log2 fold change” value was 0.0402.
For RRIRGRPPRLPRPRPRPRWHPRP, the “shrunken log2 fold change” value came out at 0.522.
Under RRIRKRPPRLPRPRPRPDMFPRP stands -0.258; under RRIRTRPPRLPRPRPRPKKRPRP, 0.0216; under RRIRNRPPRLPRPRPRPKLAPRP, 0.0921.
Under RRIRERPPRLPRPRPRPSNWPRP stands -0.296.
As for RRIRLRPPRLPRPRPRPTYRPRP, the “shrunken log2 fold change” value was -0.266.
Regarding RRIRHRPPRLPRPRPRPAQQPRP, the “shrunken log2 fold change” value is -0.0312.
As for RRIRGRPPRLPRPRPRPVFDPRP, the figure is 0.39; as for RRIRARPPRLPRPRPRPIHDPRP, -0.0961; as for RRIRTRPPRLPRPRPRPSHNPRP, -0.681.
Regarding RRIRERPPRLPRPRPRPQQWPRP, the “shrunken log2 fold change” value turned out to be 0.19.
Under RRIRGRPPRLPRPRPRPEEGPRP stands 0.0303; under RRIRTRPPRLPRPRPRPTGIPRP, 0.00119.
RRIRDRPPRLPRPRPRPHVRPRP: the “shrunken log2 fold change” value is -0.12.
As for RRIRIRPPRLPRPRPRPTWAPRP, the figure is 0.0207; as for RRIRVRPPRLPRPRPRPYHMPRP, -0.305; as for RRIRHRPPRLPRPRPRPCDSPRP, -0.00145.
Under RRIRFRPPRLPRPRPRPWLLPRP stands -0.343; under RRIRPRPPRLPRPRPRPIFCPRP, -0.0959; under RRIRYRPPRLPRPRPRPGQHPRP, -0.179.
In the case of RRIRVRPPRLPRPRPRPLWIPRP, the “shrunken log2 fold change” value was -0.189.
Regarding RRIRGRPPRLPRPRPRPYGVPRP, the “shrunken log2 fold change” value is -0.128.
For the sequence RRIRNRPPRLPRPRPRPIHPPRP, the “shrunken log2 fold change” value came out at 0.135.
For the sequence RRIRDRPPRLPRPRPRPYEYPRP, the “shrunken log2 fold change” value was -0.17.
With RRIRERPPRLPRPRPRPKSQPRP, the “shrunken log2 fold change” value was -0.0879.
As to RRIRHRPPRLPRPRPRPDDSPRP, the “shrunken log2 fold change” value is -0.01.
As for RRIRHRPPRLPRPRPRPQTYPRP, the “shrunken log2 fold change” value was -0.193.
RRIRCRPPRLPRPRPRPRQDPRP: the “shrunken log2 fold change” value is -0.0742.
Regarding RRIRVRPPRLPRPRPRPAQKPRP, the “shrunken log2 fold change” value came out at 0.135.
As for RRIRRRPPRLPRPRPRPMKDPRP, the figure is 0.19; as for RRIRERPPRLPRPRPRPGFMPRP, -0.136; as for RRIRNRPPRLPRPRPRPNHIPRP, -0.733.
RRIRYRPPRLPRPRPRPKWRPRP: the “shrunken log2 fold change” value was found to be 0.0685.
Consider RRIRHRPPRLPRPRPRPYNVPRP, for which the “shrunken log2 fold change” value was -0.0512.
Take RRIRGRPPRLPRPRPRPIMNPRP: the “shrunken log2 fold change” value came to 0.237.
For the sequence RRIRCRPPRLPRPRPRPTDFPRP, the “shrunken log2 fold change” value was -0.759.
Regarding RRIRMRPPRLPRPRPRPCWLPRP, the “shrunken log2 fold change” value is -0.0281.
As to RRIRPRPPRLPRPRPRPRYFPRP, the “shrunken log2 fold change” value came out at 0.0508.
With RRIRMRPPRLPRPRPRPWYRPRP, the “shrunken log2 fold change” value is -0.277.
In the case of RRIRLRPPRLPRPRPRPRIWPRP, the “shrunken log2 fold change” value was 0.394.
On to RRIRHRPPRLPRPRPRPIDSPRP, for which the “shrunken log2 fold change” value is -0.0116.
Turning to RRIRARPPRLPRPRPRPFDSPRP, the “shrunken log2 fold change” value is -0.0745.
As for RRIRCRPPRLPRPRPRPSGNPRP, the “shrunken log2 fold change” value was -0.598.
Take RRIRVRPPRLPRPRPRPGQYPRP: the “shrunken log2 fold change” value is -0.113.
As for RRIRDRPPRLPRPRPRPDDQPRP, the “shrunken log2 fold change” value is 0.259.
For RRIRNRPPRLPRPRPRPESDPRP, the “shrunken log2 fold change” value came out at 0.648.
Take RRIRWRPPRLPRPRPRPYAPPRP: the “shrunken log2 fold change” value was -0.232.
RRIRKRPPRLPRPRPRPMRRPRP: the “shrunken log2 fold change” value worked out at 0.762.
As to RRIRFRPPRLPRPRPRPTVHPRP, the “shrunken log2 fold change” value is -0.238.
On to RRIRVRPPRLPRPRPRPVMTPRP, for which the “shrunken log2 fold change” value was 0.0124.
On to RRIRHRPPRLPRPRPRPDNTPRP, for which the “shrunken log2 fold change” value was -0.0928.
As for RRIRARPPRLPRPRPRPDHRPRP, the “shrunken log2 fold change” value was 0.0154.
As for RRIRARPPRLPRPRPRPRKAPRP, the figure is 0.0975; as for RRIRDRPPRLPRPRPRPAMSPRP, 0.184; as for RRIRNRPPRLPRPRPRPCMDPRP, -0.129.
With RRIRWRPPRLPRPRPRPIWEPRP, the “shrunken log2 fold change” value is 0.00194.
For the sequence RRIRMRPPRLPRPRPRPPVSPRP, the “shrunken log2 fold change” value stood at 1.27.
As for RRIRARPPRLPRPRPRPPDQPRP, the “shrunken log2 fold change” value came to 1.16.
Regarding RRIRDRPPRLPRPRPRPFTHPRP, the “shrunken log2 fold change” value is -0.0968.
As to RRIRARPPRLPRPRPRPMYSPRP, the “shrunken log2 fold change” value is -0.08.
For the sequence RRIRGRPPRLPRPRPRPGYDPRP, the “shrunken log2 fold change” value came out at 0.371.
As to RRIRVRPPRLPRPRPRPPMLPRP, the “shrunken log2 fold change” value is -0.037.
On to RRIRKRPPRLPRPRPRPRCYPRP, for which the “shrunken log2 fold change” value is -0.181.
With RRIRYRPPRLPRPRPRPNYTPRP, the “shrunken log2 fold change” value is -0.562.
For the sequence RRIRHRPPRLPRPRPRPLAMPRP, the “shrunken log2 fold change” value was determined as 0.287.
For the sequence RRIRCRPPRLPRPRPRPTTVPRP, the “shrunken log2 fold change” value is -0.356.
As for RRIRSRPPRLPRPRPRPKKKPRP, the “shrunken log2 fold change” value was 0.195.
Under RRIRWRPPRLPRPRPRPDRGPRP stands -0.0836.
